Columns and labels:
Assay in all cases: cell-based or functional assay
[1] = target: Hemagglutinin of A/Milan/UHSR1/2009 (H1N1) (Influenza A virus A/Milan/UHSR1/2009 …)
[2] = target: Hemagglutinin of A/WS/33 (H1N1) (Influenza A virus A/WS/33 (H1N1), UniProt P03454 18-565)
[3] = target: Hemagglutinin of A/Mal/302/54 (H1N1) (Influenza A virus A/Mal/302/54 (H1N1))
[4] = target: Hemagglutinin of A/NC/20/99 (H1N1) (Influenza A virus A/NC/20/99 (H1N1))
[5] = target: Hemagglutinin of A/Swine/Parma/1/97 (H1N1) (Influenza A virus A/Swine/Parma/1/97 …)
[6] = target: A/PR/8/34 (H1N1) hemagglutinin (HA), wild type (Influenza A virus A/PR/8/34 (H1N1), UniProt P03452 18-565)
[7] = target: Hemagglutinin of A/Hong Kong/8/68 (H3N2) (Influenza A virus A/Hong Kong/8/68 …)
[8] = target: Hemagglutinin of A/Victoria/3/75 (H3N2) (Influenza A virus A/Victoria/3/75 (H3N2), UniProt P03435 17-567)
[9] = target: Hemagglutinin of A/Port Chalmers/1/73 (H3N2) (Influenza A virus A/Port Chalmers/1/73 …)
[10] = target: Hemagglutinin of A/Wisconsin/67/2005 (H3N2) (Influenza A virus A/Wisconsin/67/2005 …)
[11] = target: H3N2 HA (A/Aichi/2/68), wild type (Influenza A virus A/Aichi/2/68 (H3N2), UniProt Q91MA7 17-566)

B1: Fab PN-SIA28 (Fab, V domains shown)
VH: LEESGGGVVQPGRSLRLSCAASGFPFSSYGMHWVRQAPGKGLEWVAGVSYDGSYKYYADSVKGRFTISRDSSKSTLYLQMNSLRPEDTAVYYCARPSAIFGIYIILNGLDVWGQGTTVTVSS
VL: ELTQSPSSVSASVGDRVTITCRATQGISSWLAWYQQKPGKPPKLLIFGASSLQSGVPSRFSGSGSGTDFTLTISSLQPEDFATYFCQQAHSFPLTFGGGTKVEIK
IC50, micro-neutralization assay on MDCK cells [1]: 0.3 µg/mL
IC50, micro-neutralization assay on MDCK cells [2]: 2.9 µg/mL
IC50, micro-neutralization assay on MDCK cells [3]: 0.8 µg/mL
IC50, micro-neutralization assay on MDCK cells [4]: 7 µg/mL
IC50, micro-neutralization assay on MDCK cells [5]: 3.9 µg/mL
IC50, micro-neutralization assay on MDCK cells [6]: 2 µg/mL
IC50, micro-neutralization assay on MDCK cells [7]: 20 µg/mL
IC50, micro-neutralization assay on MDCK cells [8]: > 20 µg/mL
IC50, micro-neutralization assay on MDCK cells [9]: 13.2 µg/mL
IC50, micro-neutralization assay on MDCK cells [10]: > 20 µg/mL
IC50, micro-neutralization assay on MDCK cells [11]: 20 µg/mL

B2: IgG PN-SIA28 (antibody, V domains shown)
VH: LEESGGGVVQPGRSLRLSCAASGFPFSSYGMHWVRQAPGKGLEWVAGVSYDGSYKYYADSVKGRFTISRDSSKSTLYLQMNSLRPEDTAVYYCARPSAIFGIYIILNGLDVWGQGTTVTVSS
VL: ELTQSPSSVSASVGDRVTITCRATQGISSWLAWYQQKPGKPPKLLIFGASSLQSGVPSRFSGSGSGTDFTLTISSLQPEDFATYFCQQAHSFPLTFGGGTKVEIK
IC50, micro-neutralization assay on MDCK cells [1]: 0.2 µg/mL
IC50, micro-neutralization assay on MDCK cells [2]: 1.3 µg/mL
IC50, micro-neutralization assay on MDCK cells [3]: 0.64 µg/mL
IC50, micro-neutralization assay on MDCK cells [5]: 2 µg/mL
IC50, micro-neutralization assay on MDCK cells [6]: 1.2 µg/mL
IC50, micro-neutralization assay on MDCK cells [7]: 0.8 µg/mL
IC50, micro-neutralization assay on MDCK cells [8]: 1.2 µg/mL
IC50, micro-neutralization assay on MDCK cells [9]: 1.8 µg/mL
IC50, micro-neutralization assay on MDCK cells [11]: 0.6 µg/mL
